Measurements reported in publication PMC4323418.
Like-named read-outs stand apart in the source and are kept apart here.

How the values were obtained:
[1] = target: T1, CceR-6xHis (Rhodobacter sphaeroides 2.4.1, UniProt Q3J5X3 1-345); experiment: EMSA
T1 sequence: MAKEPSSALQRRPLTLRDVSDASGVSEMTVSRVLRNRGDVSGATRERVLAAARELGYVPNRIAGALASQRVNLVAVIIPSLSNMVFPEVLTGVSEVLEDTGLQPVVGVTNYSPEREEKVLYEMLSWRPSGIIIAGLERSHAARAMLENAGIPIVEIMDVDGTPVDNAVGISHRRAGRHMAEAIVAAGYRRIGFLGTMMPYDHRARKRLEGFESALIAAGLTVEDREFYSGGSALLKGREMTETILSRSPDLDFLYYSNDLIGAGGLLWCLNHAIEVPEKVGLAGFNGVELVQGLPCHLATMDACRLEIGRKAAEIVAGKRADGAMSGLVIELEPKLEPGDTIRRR

[2] = target: T1, CceR-6xHis; experiment: EMSA; remark: listed apart in the source

B1: bchF promoter fragment (dsDNA)
DNA 1: TCATCCAAGGAGGAACGCATGTCAAAGAAAATTGACACCTCAGGCAGCGGAGGCAGCCCATCCCCCGCTGAACTCACACTTAATCCTTGGATTTACGACAGAGTGTCGCAGCTTC
DNA 2: GAAGCTGCGACACTCTGTCGTAAATCCAAGGATTAAGTGTGAGTTCAGCGGGGGATGGGCTGCCTCCGCTGCCTGAGGTGTCAATTTTCTTTGACATGCGTTCCTCCTTGGATGA
B1: no binding [1].

B2: zwf promoter fragment (dsDNA)
DNA 1: CGGGCGTCTTTCCACATTTACCCCGGCGGGGGGCGCGCTAGACTCGGGCCACGGCAGCCGCTAGAACGGCCGTTAGCGCTAACAGGCGAGGCAGC
DNA 2: GCTGCCTCGCCTGTTAGCGCTAACGGCCGTTCTAGCGGCTGCCGTGGCCCGAGTCTAGCGCGCCCCCCGCCGGGGTAAATGTGGAAAGACGCCCG
B2: binds [2].
